Laboratory results taken from paper PMC3274534.

Biological target: recombinant human adenovirus type 5 (E1 region replaced by lacZ cDNA), whole virus particles (human adenovirus type 5) (UniProt P04133)

“human coagulation factor X (zymogen) (natural protein)” gave a binding of the virus-hFX complex to heparan sulfate-coated plates (attached particles by real-time PCR), enhancement over virus alone; hFX at 0.008 and 0.05 mg/ml of 7.5 times.
